The text below walks through data of patent publication US20200199554A1 (KATHOLIEKE UNIVERSITEIT LEUVEN, published 2020).

This series deals with the molecule itself. Put plainly: zymogram (SDS-PAGE gel with embedded fish sperm DNA, renatured); self-association, dimer band. Here is the method:
In addition, the nuclease activity was confirmed by zymography. […] Then, the gel was washed three times for 5 min in mQ and incubated for 48 h in zymogram renaturation buffer (150 mM NaH₂PO₄ pH 7, 10 mM MgCl₂ and 0.1% Triton X-100), which allowed the proteins to refold to their native state. Finally, the gel was stained for 20 min in 0.5 μg/ml ethidium bromide and destained for 20 min in the zymogram renaturation buffer. After staining with ethidium bromide, the enzymes with nuclease activity were visible as non-fluorescent bands using an UV transilluminator. The impact of boiling on the renaturing capacity of Gp5 was tested by loading both preboiled (10 min, 95° C.) and non-preboiled samples. Clear bands were observed around 8-9 kDa, indicating the nuclease activity of Gp5 (MW=8.5 KDa) (for details see FIG. 4). […] Despite the small fraction of Gp5 that is present as a dimer on the zymogram, this dimer:monomer ratio is not necessarily present in vivo. After all, SDS is an anionic surfactant, negatively charging proteins to allow a separation based on the molecular weight in SDS-PAGE. This step generally involves also the disintegration of dimers into monomers. The removal of SDS in the renaturation step, might allow Gp5 to reassociate into dimers.
Clear bands were observed around 8-9 kDa in all samples, indicating the presence of Gp5. […] The protein concentrations are shown on the top.

B1: LUZ19_Gp5 (untagged, purified) (enzyme)
chain: MSSRDPYRIGHRVGLVNYSDRYLGADAAGTKGTIEAITRPSRCMTIYHVRCERTLRLIEAEARNVRFIRQRAER
notes: A few linker residues may remain at the N-terminus; also called Phage LUZ19 gp5; miniDNase
In the case of B1, the binding result is given as “binds”.
